The supplement of paper PMC10065799, “High-throughput profiling of sequence recognition by tyrosine kinases and SH2 domains using bacterial peptide display” (eLife, 2023)

Target: Hck (UniProt P08631)
Assay: phosphorylation enrichment, bacterial display (enrichment ratio); higher = better substrate or ligand; peptides without Tyr show the background
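Also: 11-residue human phosphosite peptides and single-mutation variants displayed on the E. coli surface, counted by deep sequencing, each peptide's frequency after selection divided by its frequency in the unselected input library; frequency after pTyr selection over input frequency; kinase dosed for 20-30% of maximal phosphorylation in three min.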

Hck, sequence (P08631 whole entry, looked up): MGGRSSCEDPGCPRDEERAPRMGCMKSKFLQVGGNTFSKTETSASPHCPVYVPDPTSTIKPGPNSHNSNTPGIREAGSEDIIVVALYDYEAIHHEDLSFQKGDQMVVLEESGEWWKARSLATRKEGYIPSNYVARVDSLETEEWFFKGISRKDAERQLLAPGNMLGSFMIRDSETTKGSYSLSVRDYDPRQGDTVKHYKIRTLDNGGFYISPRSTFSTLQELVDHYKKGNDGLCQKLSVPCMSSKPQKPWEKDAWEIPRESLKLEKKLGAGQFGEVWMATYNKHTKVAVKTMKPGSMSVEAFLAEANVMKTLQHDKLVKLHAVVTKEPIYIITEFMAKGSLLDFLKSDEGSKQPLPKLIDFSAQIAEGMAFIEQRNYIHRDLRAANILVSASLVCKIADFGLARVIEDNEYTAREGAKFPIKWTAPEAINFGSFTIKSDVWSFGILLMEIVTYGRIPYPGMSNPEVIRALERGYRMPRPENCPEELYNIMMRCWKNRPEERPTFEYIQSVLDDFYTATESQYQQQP

Sequence | phosphorylation enrichment
GRQGIYTKNER [GPR143_Y231_E233K] | 0.327
GTHCHYKAPIV [FZD9_Y569_T573I] | 0.544
KDQGTYEDFVE [MYL6_Y86_YF] | 0.966
GPQGVYSNKLV [PTPN14_Y506] | 0.588
IGVDSYSVCKR [RPS6KA3_Y433_G431D] | 0.387
VSNFNYFFHRE [KCNA1_Y413_YF] | 0.506
QHVPDYRQNGY [PCDHGA1_Y890_V894G] | 0.524
VSVVDYVEPSP [TXNRD2_Y70_A66S] | 0.565
FSIDHYLGKEM [G6PD_Y202_R198S_YF] | 0.537
DQIDTYELSGA [DNM1_Y354_G359A] | 0.741
NNHGNYIVRLG [ETFDH_Y172] | 0.481
KPVEEYANCHL [TF_Y593] | 0.613
HFGCVYFGTLL [MET_Y1093_H1094Y_YF] | 0.763
QFRFIYMAVQH [PTPN11_Y515_YF] | 1.42
LHQSTYQCYDV [SLC7A14_Y693_R695C] | 2.78
EPYKVYRIVPE [IRF8_Y110] | 0.574
PLEGEYFTLQI [TP53_Y327_D324E] | 4.86
DVFRQYASLTG [GANAB_Y379] | 0.448
GSRGKYSSGFR [ATM_Y332] | 0.338
SWVVPYEPPEV [TP53_Y220_V216W] | 0.542
EKSREYDRLYE [PIK3R1_Y463] | 0.944
LCHELYNTIRD [PBRM1_Y54_V49L] | 6.12
TSESSYYKSLN [NGEF_Y288_A286S] | 0.496
SSLMKYQQNVS [EGFEM1P_Y160_P157L] | 0.426
QKKPRYEIRWK [PDGFRB_Y562] | 0.723
TTKAKYKTPTY [PLD2_Y573] | 0.443
STEVIYQPRRK [STK11_Y36] | 0.683
GREFIYVDPMQ [PDGFRA_Y574_H570R_YF] | 1.2
AGAKTYKMSMA [CPS1_Y309] | 0.374

Target: Jak2 (UniProt O60674)
Assay: as above

Jak2, sequence (O60674 whole entry, looked up): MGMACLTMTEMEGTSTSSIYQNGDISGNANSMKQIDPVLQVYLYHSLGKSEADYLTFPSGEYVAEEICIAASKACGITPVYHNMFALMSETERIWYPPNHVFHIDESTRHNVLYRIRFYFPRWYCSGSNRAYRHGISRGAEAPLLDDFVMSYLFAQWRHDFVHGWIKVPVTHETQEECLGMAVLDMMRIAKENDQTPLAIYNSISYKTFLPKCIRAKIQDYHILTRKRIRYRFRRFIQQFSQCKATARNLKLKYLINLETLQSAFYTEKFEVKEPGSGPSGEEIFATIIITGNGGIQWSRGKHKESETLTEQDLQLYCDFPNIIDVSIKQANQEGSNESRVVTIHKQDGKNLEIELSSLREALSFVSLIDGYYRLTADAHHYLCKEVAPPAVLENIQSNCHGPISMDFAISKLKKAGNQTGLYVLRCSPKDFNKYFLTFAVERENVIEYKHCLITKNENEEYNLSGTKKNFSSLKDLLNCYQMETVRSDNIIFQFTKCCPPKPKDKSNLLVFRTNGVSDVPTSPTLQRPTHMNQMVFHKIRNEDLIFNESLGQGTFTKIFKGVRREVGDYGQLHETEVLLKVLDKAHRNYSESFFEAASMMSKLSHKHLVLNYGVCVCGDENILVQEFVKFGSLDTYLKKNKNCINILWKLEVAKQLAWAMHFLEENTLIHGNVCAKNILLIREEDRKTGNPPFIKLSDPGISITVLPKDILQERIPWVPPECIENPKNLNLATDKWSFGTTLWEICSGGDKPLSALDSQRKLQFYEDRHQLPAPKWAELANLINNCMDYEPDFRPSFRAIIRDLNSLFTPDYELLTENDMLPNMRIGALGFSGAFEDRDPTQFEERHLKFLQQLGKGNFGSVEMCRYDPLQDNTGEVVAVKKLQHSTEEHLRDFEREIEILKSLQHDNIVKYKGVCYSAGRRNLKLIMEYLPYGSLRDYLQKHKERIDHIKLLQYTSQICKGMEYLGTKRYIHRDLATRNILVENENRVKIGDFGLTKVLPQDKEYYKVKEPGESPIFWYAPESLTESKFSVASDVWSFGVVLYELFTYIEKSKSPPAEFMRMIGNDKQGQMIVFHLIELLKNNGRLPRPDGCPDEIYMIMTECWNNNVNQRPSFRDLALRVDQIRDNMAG

Sequence | phosphorylation enrichment
GRQGIYTKNER [GPR143_Y231_E233K] | 0.46
GTHCHYKAPIV [FZD9_Y569_T573I] | 0.658
KDQGTYEDFVE [MYL6_Y86_YF] | 1.94
GPQGVYSNKLV [PTPN14_Y506] | 0.544
IGVDSYSVCKR [RPS6KA3_Y433_G431D] | 0.462
VSNFNYFFHRE [KCNA1_Y413_YF] | 0.969
QHVPDYRQNGY [PCDHGA1_Y890_V894G] | 0.719
VSVVDYVEPSP [TXNRD2_Y70_A66S] | 0.725
FSIDHYLGKEM [G6PD_Y202_R198S_YF] | 1.16
DQIDTYELSGA [DNM1_Y354_G359A] | 1.03
NNHGNYIVRLG [ETFDH_Y172] | 0.702
KPVEEYANCHL [TF_Y593] | 0.915
HFGCVYFGTLL [MET_Y1093_H1094Y_YF] | 1.18
QFRFIYMAVQH [PTPN11_Y515_YF] | 2.21
LHQSTYQCYDV [SLC7A14_Y693_R695C] | 1.31
EPYKVYRIVPE [IRF8_Y110] | 0.658
PLEGEYFTLQI [TP53_Y327_D324E] | 5.5
DVFRQYASLTG [GANAB_Y379] | 0.589
GSRGKYSSGFR [ATM_Y332] | 0.62
SWVVPYEPPEV [TP53_Y220_V216W] | 0.957
EKSREYDRLYE [PIK3R1_Y463] | 0.828
LCHELYNTIRD [PBRM1_Y54_V49L] | 2.44
TSESSYYKSLN [NGEF_Y288_A286S] | 0.771
SSLMKYQQNVS [EGFEM1P_Y160_P157L] | 0.422
QKKPRYEIRWK [PDGFRB_Y562] | 1.74
TTKAKYKTPTY [PLD2_Y573] | 0.488
STEVIYQPRRK [STK11_Y36] | 0.612
GREFIYVDPMQ [PDGFRA_Y574_H570R_YF] | 0.703
AGAKTYKMSMA [CPS1_Y309] | 0.527

Target: MERTK (UniProt Q12866)
Assay: as above

MERTK, sequence (Q12866 whole entry, looked up): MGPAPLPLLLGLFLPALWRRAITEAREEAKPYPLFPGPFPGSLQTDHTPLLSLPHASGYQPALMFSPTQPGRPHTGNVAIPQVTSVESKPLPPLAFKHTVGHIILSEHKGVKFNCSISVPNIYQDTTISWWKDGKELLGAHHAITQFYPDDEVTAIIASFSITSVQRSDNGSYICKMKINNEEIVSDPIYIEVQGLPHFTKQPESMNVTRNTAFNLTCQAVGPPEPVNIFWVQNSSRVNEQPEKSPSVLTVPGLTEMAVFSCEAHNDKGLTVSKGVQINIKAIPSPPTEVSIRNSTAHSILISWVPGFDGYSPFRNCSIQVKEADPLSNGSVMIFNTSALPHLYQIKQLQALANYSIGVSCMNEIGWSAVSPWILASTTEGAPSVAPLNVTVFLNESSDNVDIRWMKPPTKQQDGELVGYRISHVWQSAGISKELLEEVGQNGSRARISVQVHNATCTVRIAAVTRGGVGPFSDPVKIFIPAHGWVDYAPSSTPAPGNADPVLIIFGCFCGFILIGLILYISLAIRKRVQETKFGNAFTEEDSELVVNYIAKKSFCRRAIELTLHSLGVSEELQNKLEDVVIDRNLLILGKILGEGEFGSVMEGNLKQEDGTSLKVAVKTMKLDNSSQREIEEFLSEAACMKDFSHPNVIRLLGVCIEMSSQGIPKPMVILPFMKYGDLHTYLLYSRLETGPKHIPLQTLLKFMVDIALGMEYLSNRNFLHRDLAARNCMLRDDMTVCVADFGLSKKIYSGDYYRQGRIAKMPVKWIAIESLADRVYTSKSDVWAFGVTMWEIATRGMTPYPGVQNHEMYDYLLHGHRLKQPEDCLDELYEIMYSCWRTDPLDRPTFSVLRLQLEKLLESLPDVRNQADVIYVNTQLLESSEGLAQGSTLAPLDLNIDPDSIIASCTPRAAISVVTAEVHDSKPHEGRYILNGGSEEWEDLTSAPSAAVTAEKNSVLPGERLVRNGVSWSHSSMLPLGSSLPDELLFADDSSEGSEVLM

Sequence | phosphorylation enrichment
GRQGIYTKNER [GPR143_Y231_E233K] | 0.359
GTHCHYKAPIV [FZD9_Y569_T573I] | 0.4
KDQGTYEDFVE [MYL6_Y86_YF] | 1.12
GPQGVYSNKLV [PTPN14_Y506] | 0.519
IGVDSYSVCKR [RPS6KA3_Y433_G431D] | 0.338
VSNFNYFFHRE [KCNA1_Y413_YF] | 0.45
QHVPDYRQNGY [PCDHGA1_Y890_V894G] | 0.493
VSVVDYVEPSP [TXNRD2_Y70_A66S] | 0.485
FSIDHYLGKEM [G6PD_Y202_R198S_YF] | 0.421
DQIDTYELSGA [DNM1_Y354_G359A] | 0.475
NNHGNYIVRLG [ETFDH_Y172] | 0.416
KPVEEYANCHL [TF_Y593] | 0.544
HFGCVYFGTLL [MET_Y1093_H1094Y_YF] | 0.528
QFRFIYMAVQH [PTPN11_Y515_YF] | 0.858
LHQSTYQCYDV [SLC7A14_Y693_R695C] | 1.06
EPYKVYRIVPE [IRF8_Y110] | 0.462
PLEGEYFTLQI [TP53_Y327_D324E] | 0.967
DVFRQYASLTG [GANAB_Y379] | 0.406
GSRGKYSSGFR [ATM_Y332] | 0.559
SWVVPYEPPEV [TP53_Y220_V216W] | 0.39
EKSREYDRLYE [PIK3R1_Y463] | 0.597
LCHELYNTIRD [PBRM1_Y54_V49L] | 0.796
TSESSYYKSLN [NGEF_Y288_A286S] | 0.564
SSLMKYQQNVS [EGFEM1P_Y160_P157L] | 0.343
QKKPRYEIRWK [PDGFRB_Y562] | 1.16
TTKAKYKTPTY [PLD2_Y573] | 0.362
STEVIYQPRRK [STK11_Y36] | 0.643
GREFIYVDPMQ [PDGFRA_Y574_H570R_YF] | 2
AGAKTYKMSMA [CPS1_Y309] | 0.364

Tested on: c-Abl (mouse)
Assay: as above

Sequence | phosphorylation enrichment
GRQGIYTKNER [GPR143_Y231_E233K] | 0.422
GTHCHYKAPIV [FZD9_Y569_T573I] | 3.44
KDQGTYEDFVE [MYL6_Y86_YF] | 1.97
GPQGVYSNKLV [PTPN14_Y506] | 0.537
IGVDSYSVCKR [RPS6KA3_Y433_G431D] | 0.417
VSNFNYFFHRE [KCNA1_Y413_YF] | 0.831
QHVPDYRQNGY [PCDHGA1_Y890_V894G] | 0.621
VSVVDYVEPSP [TXNRD2_Y70_A66S] | 0.576
FSIDHYLGKEM [G6PD_Y202_R198S_YF] | 0.845
DQIDTYELSGA [DNM1_Y354_G359A] | 0.681
NNHGNYIVRLG [ETFDH_Y172] | 0.667
KPVEEYANCHL [TF_Y593] | 0.755
HFGCVYFGTLL [MET_Y1093_H1094Y_YF] | 0.695
QFRFIYMAVQH [PTPN11_Y515_YF] | 1.73
LHQSTYQCYDV [SLC7A14_Y693_R695C] | 1.35
EPYKVYRIVPE [IRF8_Y110] | 0.473
PLEGEYFTLQI [TP53_Y327_D324E] | 2.98
DVFRQYASLTG [GANAB_Y379] | 0.573
GSRGKYSSGFR [ATM_Y332] | 0.547
SWVVPYEPPEV [TP53_Y220_V216W] | 0.851
EKSREYDRLYE [PIK3R1_Y463] | 0.938
LCHELYNTIRD [PBRM1_Y54_V49L] | 0.929
TSESSYYKSLN [NGEF_Y288_A286S] | 0.499
SSLMKYQQNVS [EGFEM1P_Y160_P157L] | 0.374
QKKPRYEIRWK [PDGFRB_Y562] | 1.05
TTKAKYKTPTY [PLD2_Y573] | 0.539
STEVIYQPRRK [STK11_Y36] | 1
GREFIYVDPMQ [PDGFRA_Y574_H570R_YF] | 3.31
AGAKTYKMSMA [CPS1_Y309] | 0.383
